This passage reports enrichment results from publication PMC13397619.

To fix the notation:
B1: NLV2 TCR alpha chain (CDR3α only) (parent)
chain: AGPMKTSYDKVI

The variants in one assay derive from B1. Briefly: T-Switch: Jurkat TCRβ−/− cells expressing a CDR3 saturation-mutagenesis library, stained with two peptide-HLA-A*02:01 tetramers (original and novel peptide) plus anti-CD3, FACS-sorted into four gates, gDNA sequenced. The conditions noted are these: with both tetramers (double-negative gate, binds neither): HLA-A*02:01 with … and with …, tetramers 1 µg/mL, 30 min on ice, SP, DP and SW gates expanded about 10 days between rounds ('two to three rounds of selection' in the Methods), gate DN: OPPOSITE: higher = more of the variant in the gate that binds neither peptide = LESS binding (or no expression; inferred). Fold enrichment of the CDR3 variant in one FACS gate of a two-tetram, unresolved parent, parent is a CDR3 fragment, scale: fold enrichment, numbering: sequential-on-construct, sequence starts at 1.
For the variant […] (CDR3 as printed); K10V derived by comparing it with the table's wild-type CDR3 AGPMKTSYDKVI, the enrichment amounted to 1.38.
For the variant […] (CDR3 as printed); K10L derived by comparing it with the table's wild-type CDR3 AGPMKTSYDKVI, the enrichment stood at 1.05.
Turning to […] (CDR3 as printed); K10D derived by comparing it with the table's wild-type CDR3 AGPMKTSYDKVI, the enrichment worked out at 0.842.
On the same count and under the same terms, the value for […] (CDR3 as printed); A1R derived by comparing it with the table's wild-type CDR3 AGPMKTSYDKVI was 0.924.
Same read-out and setting: the value for […] (CDR3 as printed); I12S derived by comparing it with the table's wild-type CDR3 AGPMKTSYDKVI was 0.885.
For […] (CDR3 as printed); K10W derived by comparing it with the table's wild-type CDR3 AGPMKTSYDKVI, the enrichment was determined as 1.38.
Same read-out and setting: the value for […] (CDR3 as printed); K10S derived by comparing it with the table's wild-type CDR3 AGPMKTSYDKVI was 1.01.
On the same count and under the same terms, the same measure for […] (CDR3 as printed); K10I derived by comparing it with the table's wild-type CDR3 AGPMKTSYDKVI: 1.1.
On the same count and under the same terms, the same measure for […] (CDR3 as printed); I12W derived by comparing it with the table's wild-type CDR3 AGPMKTSYDKVI: 0.924; for […] (CDR3 as printed); G2Y derived by comparing it with the table's wild-type CDR3 AGPMKTSYDKVI: 0.902; for […] (CDR3 as printed); I12D derived by comparing it with the table's wild-type CDR3 AGPMKTSYDKVI: 0.942.
On to […] (CDR3 as printed); I12N derived by comparing it with the table's wild-type CDR3 AGPMKTSYDKVI, for which the enrichment turned out to be 1.04.
For […] (CDR3 as printed); A1E derived by comparing it with the table's wild-type CDR3 AGPMKTSYDKVI, the enrichment came to 0.767.
Regarding […] (CDR3 as printed); D9W derived by comparing it with the table's wild-type CDR3 AGPMKTSYDKVI, the enrichment came to 1.34.
On to […] (CDR3 as printed); D9T derived by comparing it with the table's wild-type CDR3 AGPMKTSYDKVI, for which the enrichment was found to be 0.889.
As to […] (CDR3 as printed); G2M derived by comparing it with the table's wild-type CDR3 AGPMKTSYDKVI, the enrichment stood at 1.1.
For […] (CDR3 as printed); G2L derived by comparing it with the table's wild-type CDR3 AGPMKTSYDKVI, the enrichment is 0.978.
Still for that read-out and setting: the value for […] (CDR3 as printed); K10R derived by comparing it with the table's wild-type CDR3 AGPMKTSYDKVI was 0.909; that for […] (CDR3 as printed); A1I derived by comparing it with the table's wild-type CDR3 AGPMKTSYDKVI was 0.798.
The same measure, in the same setting: the same measure for […] (CDR3 as printed); K10G derived by comparing it with the table's wild-type CDR3 AGPMKTSYDKVI: 1.
As for […] (CDR3 as printed); G2E derived by comparing it with the table's wild-type CDR3 AGPMKTSYDKVI, the enrichment stood at 0.844.
[…] (CDR3 as printed); D9N derived by comparing it with the table's wild-type CDR3 AGPMKTSYDKVI: the enrichment turned out to be 1.01.
On the same count and under the same terms, the value for […] (CDR3 as printed); I12C derived by comparing it with the table's wild-type CDR3 AGPMKTSYDKVI was 1.05; that for […] (CDR3 as printed); G2T derived by comparing it with the table's wild-type CDR3 AGPMKTSYDKVI was 0.533.
For the variant […] (CDR3 as printed); M4H derived by comparing it with the table's wild-type CDR3 AGPMKTSYDKVI, the enrichment is 0.903.

The assay is the same for the next values; noted with them: with both tetramers (double-positive gate): HLA-A*02:01 with … and with …, tetramers 1 µg/mL, 30 min on ice, SP, DP and SW gates expanded about 10 days between rounds ('two to three rounds of selection' in the Methods), gate DP: higher = more of the variant in the gate that binds both peptides. Fold enrichment of the CDR3 variant in one FACS gate of a two-tetramer stain. SP/DP/SW gates were expanded and re-sorted bef, unresolved parent, parent is a CDR3 fragment, scale: fold enrichment, numbering: sequential-on-construct, sequence starts at 1.
Regarding […] (CDR3 as printed); K10V derived by comparing it with the table's wild-type CDR3 AGPMKTSYDKVI, the enrichment turned out to be 0.
For […] (CDR3 as printed); K10L derived by comparing it with the table's wild-type CDR3 AGPMKTSYDKVI, the enrichment worked out at 0.
Same read-out and setting: the value for […] (CDR3 as printed); K10D derived by comparing it with the table's wild-type CDR3 AGPMKTSYDKVI was 0.
Consider […] (CDR3 as printed); A1R derived by comparing it with the table's wild-type CDR3 AGPMKTSYDKVI, for which the enrichment worked out at 0.
In the case of […] (CDR3 as printed); I12S derived by comparing it with the table's wild-type CDR3 AGPMKTSYDKVI, the enrichment is 0.
Still for that read-out and setting: the same measure for […] (CDR3 as printed); K10W derived by comparing it with the table's wild-type CDR3 AGPMKTSYDKVI: 0; for […] (CDR3 as printed); K10S derived by comparing it with the table's wild-type CDR3 AGPMKTSYDKVI: 0.
Turning to […] (CDR3 as printed); K10I derived by comparing it with the table's wild-type CDR3 AGPMKTSYDKVI, the enrichment was found to be 0.
Regarding […] (CDR3 as printed); I12W derived by comparing it with the table's wild-type CDR3 AGPMKTSYDKVI, the enrichment came to 0.
On the same count and under the same terms, the same measure for […] (CDR3 as printed); G2Y derived by comparing it with the table's wild-type CDR3 AGPMKTSYDKVI: 0; for […] (CDR3 as printed); I12D derived by comparing it with the table's wild-type CDR3 AGPMKTSYDKVI: 0.
Still for that read-out and setting: the same measure for […] (CDR3 as printed); I12N derived by comparing it with the table's wild-type CDR3 AGPMKTSYDKVI: 0; for […] (CDR3 as printed); A1E derived by comparing it with the table's wild-type CDR3 AGPMKTSYDKVI: 0; for […] (CDR3 as printed); D9W derived by comparing it with the table's wild-type CDR3 AGPMKTSYDKVI: 0.
The same measure, in the same setting: the same measure for […] (CDR3 as printed); D9T derived by comparing it with the table's wild-type CDR3 AGPMKTSYDKVI: 0; for […] (CDR3 as printed); G2M derived by comparing it with the table's wild-type CDR3 AGPMKTSYDKVI: 0.
[…] (CDR3 as printed); G2L derived by comparing it with the table's wild-type CDR3 AGPMKTSYDKVI: the enrichment worked out at 0.
With […] (CDR3 as printed); K10R derived by comparing it with the table's wild-type CDR3 AGPMKTSYDKVI, the enrichment was 0.
On the same count and under the same terms, the value for […] (CDR3 as printed); A1I derived by comparing it with the table's wild-type CDR3 AGPMKTSYDKVI was 0; that for […] (CDR3 as printed); K10G derived by comparing it with the table's wild-type CDR3 AGPMKTSYDKVI was 0.
Still for that read-out and setting: the value for […] (CDR3 as printed); G2E derived by comparing it with the table's wild-type CDR3 AGPMKTSYDKVI was 0; that for […] (CDR3 as printed); D9N derived by comparing it with the table's wild-type CDR3 AGPMKTSYDKVI was 0.
Same read-out and setting: the same measure for […] (CDR3 as printed); I12C derived by comparing it with the table's wild-type CDR3 AGPMKTSYDKVI: 0; for […] (CDR3 as printed); G2T derived by comparing it with the table's wild-type CDR3 AGPMKTSYDKVI: 0.
With […] (CDR3 as printed); M4H derived by comparing it with the table's wild-type CDR3 AGPMKTSYDKVI, the enrichment was 0.
